Source: patent publication US20100291075A1 (THERACLONE SCIENCES, published 2010)

Molecular target: recombinant GPI-linked rhesus GM-CSF on the surface of transiently transfected 293 cells (rhesus)

B1: 1783J22 human monoclonal antibody (whole IgG) (antibody, V domains shown)
VH: EVQLLQSGGGLTHPGGSLRLSCAASGFPFHKYTMTWVRQPPGKGLEWVSSVSGVNGKTYYSPSVRGRAIVSRDDSNSMLFLEIKNMTAGDTALYFCAKGPGGHLHYYYGLDVWGHGTSVTVSS
VL: DIQMTQSPSSLSASIGDRVTISCRASQAINNYVAWFQQSAGKAPKSLIYGASNLQPGVPPRFSGSVSGTNFSLTIDGLQSEDFATYFCQNYFGYPLTFGGGTTLEIKR
EC50 (read off the curve): ~0.05 µg/mL
